Measured values: PMC10728100, “Structural and biochemical investigations of a HEAT-repeat protein involved in the cytosolic iron-sulfur cluster assembly pathway” (Communications Biology, 2023)
Numbering of substitutions follows the chain as printed. “And” between values parts separate entries of the source, which are not always exact repeats. Equal values may be shown once.

T1: SUMO-tagged ScMet18 I973A (S. cerevisiae, UniProt P40469 1-1032, I973A)
T1 construct: Met18, S. cerevisiae; substitution in HEAT-repeat 22; source: E. coli Rosetta2(DE3), purified (Ni-NTA, gel filtration); not shown: His, N-terminal, kept; SUMO, N-terminal, kept
T1 sequence: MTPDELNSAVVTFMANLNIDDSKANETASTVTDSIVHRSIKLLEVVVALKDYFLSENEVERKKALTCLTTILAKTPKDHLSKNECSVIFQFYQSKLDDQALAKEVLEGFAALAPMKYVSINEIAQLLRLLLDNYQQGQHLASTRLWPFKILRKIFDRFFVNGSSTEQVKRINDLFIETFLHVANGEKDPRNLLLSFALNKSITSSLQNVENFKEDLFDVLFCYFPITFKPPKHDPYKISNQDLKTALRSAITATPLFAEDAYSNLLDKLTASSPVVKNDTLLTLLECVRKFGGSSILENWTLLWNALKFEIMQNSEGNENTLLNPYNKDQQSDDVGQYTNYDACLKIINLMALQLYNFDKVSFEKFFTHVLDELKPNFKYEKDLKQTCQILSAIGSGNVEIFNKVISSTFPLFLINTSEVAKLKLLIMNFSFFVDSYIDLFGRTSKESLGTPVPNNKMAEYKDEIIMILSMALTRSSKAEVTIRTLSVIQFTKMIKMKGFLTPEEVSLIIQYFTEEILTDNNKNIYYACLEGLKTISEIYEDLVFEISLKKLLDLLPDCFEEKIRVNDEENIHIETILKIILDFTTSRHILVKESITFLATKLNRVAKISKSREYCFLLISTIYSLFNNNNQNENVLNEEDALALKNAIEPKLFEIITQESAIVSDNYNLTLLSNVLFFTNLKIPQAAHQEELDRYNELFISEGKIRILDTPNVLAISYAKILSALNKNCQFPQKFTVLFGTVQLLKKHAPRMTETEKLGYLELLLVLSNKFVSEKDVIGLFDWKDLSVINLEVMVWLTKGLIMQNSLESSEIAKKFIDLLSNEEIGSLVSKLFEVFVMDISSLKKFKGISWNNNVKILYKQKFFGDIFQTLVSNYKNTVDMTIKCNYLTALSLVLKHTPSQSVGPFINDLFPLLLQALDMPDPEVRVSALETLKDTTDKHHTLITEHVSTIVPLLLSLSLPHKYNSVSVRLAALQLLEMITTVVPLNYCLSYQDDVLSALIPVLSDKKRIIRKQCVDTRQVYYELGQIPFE

B1: untagged ScMet18 (S. cerevisiae Met18, His-SUMO tag removed by SUMO protease) (natural protein)
chain: T1 sequence with A973I
notes: Met18 (MMS19 in humans), S. cerevisiae; Met18 gene amplified from genomic DNA; 118 kDa; model holds residues 9-225, 242-314 and 338-1029; Mixture of monomers, dimers, tetramers and hexamers in solution; hexamer and tetramer by cryo-EM; also called SUMO-cleaved ScMet18; source: E. coli Rosetta2(DE3), purified (Ni-NTA, gel filtration; tag cut with SUMO protease, Ni-NTA flow through); not shown: …
B2: SUMO-tagged ScMet18, wild type (N-terminal His-tag followed by SUMO solubility tag) (natural protein, S. cerevisiae)
chain: T1 sequence with A973I
notes: Met18, S. cerevisiae; Met18 gene amplified from genomic DNA; 131 kDa with the tag; also called SUMOMet18; SUMOScMet18; source: E. coli Rosetta2(DE3), purified (Ni-NTA, gel filtration); not shown: His, N-terminal, kept; SUMO, N-terminal, kept
B3: ScLeu1 with N-terminal His tag (natural protein, S. cerevisiae, UniProt P07264 1-779, looked up)
chain: MVYTPSKGPRTLYDKVFDAHVVHQDENGSFLLYIDRHLVHEVTSPQAFEGLENAGRKVRRVDCTLATVDHNIPTESRKNFKSLDTFIKQTDSRLQVKTLENNVKQFGVPYFGMSDARQGIVHTIGPEEGFTLPGTTVVCGDSHTSTHGAFGSLAFGIGTSEVEHVLATQTIIQAKSKNMRITVNGKLSPGITSKDLILYIIGLIGTAGGTGCVIEFAGEAIEALSMEARMSMCNMAIEAGARAGMIKPDETTFQYTKGRPLAPKGAEWEKAVAYWKTLKTDEGAKFDHEINIEAVDVIPTITWGTSPQDALPITGSVPDPKNVTDPIKKSGMERALAYMGLEPNTPLKSIKVDKVFIGSCTNGRIEDLRSAAAVVRGQKLASNIKLAMVVPGSGLVKKQAEAEGLDKIFQEAGFEWREAGCSICLGMNPDILDAYERCASTSNRNFEGRQGALSRTHLMSPAMAAAAGIAGHFVDIREFEYKDQDQSSPKVEVTSEDEKELESAAYDHAEPVQPEDAPQDIANDELKDIPVKSDDTPAKPSSSGMKPFLTLEGISAPLDKANVDTDAIIPKQFLKTIKRTGLKKGLFYEWRFRKDDQGKDQETDFVLNVEPWREAEILVVTGDNFGCGSSREHAPWALKDFGIKSIIAPSYGDIFYNNSFKNGLLPIRLDQQIIIDKLIPIANKGGKLCVDLPNQKILDSDGNVLVDHFEIEPFRKHCLVNGLDDIGITLQKEEYISRYEALRREKYSFLEGGSKLLKFDNVPKRKAVTTTFDKVHQDW
notes: Leu1, isopropylmalate isomerase, S. cerevisiae; also called HisLeu1; source: purified

Tests used:
[1] = target: the molecule itself; test: cryo-EM structure; Vitrobot-plunged grids; untagged ScMet18 at 1.2 mg/mL (9 µM) in 50 mM HEPES pH 7.5, 100 mM NaCl, 1% glycerol, 1 mM BME, 33 mM sodium acetate; 10 °C; D3 symmetry
[2] = target: the molecule itself; test: mass photometry; ScMet18 alone (SUMO-tagged or untagged) at 0.050 µM in 50 mM Tris pH 8.0, 100 mM NaCl, 1% glycerol, 5 mM BME
[3] = target: the molecule itself; test: cryo-EM structure; chameleon-prepared grids; untagged ScMet18 at 2 µg/µL (15 µM) in 50 mM Tris pH 8.0, 100 mM NaCl, 1% glycerol, 1 mM BME; 24 °C
[4] = target: T1, SUMO-tagged ScMet18 I973A; test: pull-down; as the ScCia2 bait pull-down, but ScLeu1 and ScCia1 included in addition to the SUMO-tagged ScMet18 variant and the strep-tagged ScCia2 bait; Strep-Tactin XT resin; SDS-PAGE; details: both partners purified
[5] = target: B2; test: as above; details: both partners purified

Binder	stoichiometry N [1]	stoichiometry N [2]	stoichiometry N [3]	binding result [4]	binding result [5]
B1	6	2	6 and 4	–	–
B2	–	2 and 4 and 6	–	–	–
B3	–	–	–	binds	binds
